Experimental data published in patent publication US20210253725A1 (BIONTECH, published 2021).
Positions count from the first letter of the chain named. Names and notes keep the numbering of the source.

B1: P018.S.03.A.B02 (antibody, V domains shown)
VH: QSLEESGGRLVTPGTPLTLTCTASGFSLSSYDMNWVRQAPGEGLEWIGTITTNSDTYYASWAKGRFTISKTSTTVDLKITSPTTEDTATYFCARGYTTFTLWGQGTLVTVSS
VL: DPVLTQTPSSASEPVGGTVTINCQASQNIYSNLAWYQQKPGQPPKLLIYGASTLESGVPSRFSGSGSGTQFTLTISDLESDDAATYYCQCTDYDSNYVVDFGGGTEVVVK
notes: V regions on human Ig constant parts; also called AB27_42
B2: P018.S.03.A.G06 (antibody, V domains shown)
VH: QSLEESGGDLVKPGASLTLTCTASGFSFSRNNYMCWVRQAPGKGLESIACIHDGNSVGIYYTTWAKGRFTISKTSSTTVTLQMTSLTVADTATYFCARMSYTNDWDPIWGPGTLVTVSS
VL: DIVMTQTPASVEAAVGGTVTIDCQASENIYSLLAWYQQKPGQPPKVLISLASNLASGVPSRFKGSGSGTQFSLTISDLESADAATYYCQGYYYSSSTSYENAFGGGTEVVVS
notes: V regions on human Ig constant parts; also called AB27_59
B3: P018.S.02.A.G01 (antibody, V domains shown)
VH: QSLEESGGRLVTPGTPLTLTCTVSGIDLSSNAMNWVRQAPGKGLEWIGIIYTSGSTYYASWVKGRFTISRTSTTVDLEMTSLTTEDTATYFCARGVTIDWFDLWGQGTLVTVSS
VL: AAVLTQTPSSVSAAVGGTVTINCQSSPSVYSNYLSWFQQKPGQPPKLLIYGASTLTSGVPSRFKGSGSGTQFTLTINDVQSDDAATYWCLGGYGDINDTTFGGGTEVVVK
notes: V regions on human Ig constant parts; also called AB27_37
B4: P018.S.04.A.E04 (antibody, V domains shown)
VH: QSVEESGGRLVTPGTPLTLTCTVSGFSLSTYAMNWIRQAPGKGLEWIGTITTGGSTFFASWAKGRFTISKTSTTVDLKITSPTTEDTATYFCARGGDTGYGFSYFDLWGQGTLVTVSS
VL: AVVLTQTPASVSEPVGGTVTIKCQASENIYSSLAWYQQKPGQPPKLLIYDASTLASGVPSRFKGSGSGTEYTLTISGVQSDDAATYYCQQGYSTSNLVNPFGGGTELVVN
notes: V regions on human Ig constant parts; also called AB27_75
B5: P018.S.12.A.H05 (antibody, V domains shown)
VH: QSLEESGGDLVKPGASLTLTCTASGFSFDIDYYMCWVRQAPGKGLEWIACIYAGSSGSTYYASWAKGRFTISKTSSTTVTLQMPSLTAADTATYFCARHYAGYAGDAYATDYYFNLWGRGTLVTVSS
VL: DIVMTQTPSSVSATVGDTVTINCQASQSVSNFLAWYQQKPGQPPKPLIYGASNLESGVPSRFRGSGSGTEFTLTISGMKAEDAATYYCQSGYYSATFGAGTKVEIK
notes: V regions on human Ig constant parts; also called AB134_91
B6: P018.S.02.A.F01 (antibody, V domains shown)
VH: QSVEESGGRLVTPGTPLTLTCTVSGFSLSSYAMSWVRQAPGKGLEWIGIISSSGVTYYASWAKGRFTISKTSTTVDLRITGPTTEDTATYFCARDPGYSTGWDYFFRLWGQGTLVTVSS
VL: AIKMTQTPASVSAAVGGTVSINCQASEDIESYLAWYQQKPGQPPKLLIYDASDLPSGVPSRFKGSGSGKQFTLTISGVQSDDAATYYCQHGAYTSSSDFFYAFGGGTEVVVK
notes: V regions on human Ig constant parts; also called AB134_1
B7: P018.S.11.A.F04 (antibody, V domains shown)
VH: QSVEESGGRLVTPGTPLTLTCTVSGFSLSRYTMGWVRQAPGKGLEYIGIIYGDDNTYYASWAKGRLTISKTSSTTVDLKITSPTTEDTATYFCASCAPIYYNTFSFNLWGQGTLVTVSA
VL: AYDMTQTPASVEVAVGGTVTIKCQASQTIGGSLSWYQQKPGQPPKLLIYAAATLASGVPSRFKGSGSGTQFTLTISGVESDDAATYYCQQHYTGDNVNNPFGGGTEVVVK
notes: V regions on human Ig constant parts; also called AB134_40
B8: P018.S.11.A.F05 (antibody, V domains shown)
VH: QSLEESGGRLVTPGTPLTLTCTVSGFSLSRYHMSWVRQAPGKGLEYIGYIHTDDTNWYASWAKGRFTISKTSTTVDLKITSPTTEDTATYFCARVSSVGGYYFDLWGQGTLVTVSS
VL: DVVMTQTPASVSEPVGGTVTIKCQASEDIYNLLAWYQQKPGQPPKLLIYAASTLASGVPSRFKGSGSGTQFTLTISDLESADAATYYCQNNYLISSYGVGFGGGTEVVVK
notes: V regions on human Ig constant parts; also called AB134_41
B9: P018.S.12.A.A01 (antibody, V domains shown)
VH: QSVEESGGRLVTPGTPLTLTCTVSGFSLSSYAMIWVRQAPGKGLEYIGYISYDGSTYYASWVKGRFTISKTSTTVDLKMTSLTTEDTATYFCARARIDDGYGNLWGQGTLVTVSS
VL: DVVMTQTPASVSEPVGGTVTIKCQASESISNYLAWYQQKPGQPPKLLIYAASYLASGVPSRFRGSGSGTEFTLTISDLESADAATYYCQCTYVASTYVGTFGGGTEVVVK
notes: V regions on human Ig constant parts; also called AB134_50
B10: P018.S.11.A.D04 (antibody, V domains shown)
VH: QSVEESGGRLVTPGTPLTLTCTVSGFSLNSYDMSWVRQAPGKGLEWIGFISASGSIYFASWAKGRFTISKTSTTVDLKITSPTTEDTATYFCASDSYGWAYVYYFNLWGPGTLVTVSS
VL: AVVLTQTPASVSPAVGGTVTINCRASEDIGSYLGWYQQKPGQPPKLLMHDASDLASGVPSRFSGSGSGTEFTLTISGVQSDDAATYYCQSAWYSSNTDKMAFGGGTEVVVK
notes: V regions on human Ig constant parts; also called AB134_31
B11: P018.S.12.A.G04 (antibody, V domains shown)
VH: B10 VH with S53I, G54D, S55N, I56T, F58Y
VL: B10 VL with P13A, A14T, M48I, N96D, T97S
notes: V regions on human Ig constant parts; also called AB134_86
B12: P018.S.12.A.C02 (antibody, V domains shown)
VH: QEQLVESGGGLVQPEGSLTLTCTASGFSFSNNAMCWVRQAPGKGLEWIACIYDGSSGSTYYATWAKGRFTISKTSSTTVTLQMTSLTAADTATYFCARAYGGYTVYDYAFNLWGPGTLVTVSS
VL: DVVMTQTPASVSEPVGGTVTIKCQASQSIGSDLAWYQQKPGQPPKLLIYYTTNLETGVSSRFKGSRSGTEYALTISDLESADAATYYCQYGVRSTYSFGGGTEVVVK
notes: V regions on human Ig constant parts; also called AB134_62
B13: P018.S.11.A.G02 (antibody, V domains shown)
VH: QSVEESGGRLVTPGTPLTLTCTVSGFSLSGYDMSWVRQAPGKGLEWIGYIYGGNTYYANWAKGRFTISKTSTTVDLKMTSPTTEDTATYFCTRVGAGYSGVWAYFNLWGPGTLVTVSS
VL: AQVLTQTPSSVSAAVGGTVTINCQSSQSVDSDNYLAWYQQKPGQPPKLLIYDTSKLASGVPSRFTGSGSGTQFTLTISGVQSDDAATYYCQGTYYNAGWYFAFGGGTEVVVK
notes: V regions on human Ig constant parts; also called AB134_42

molecular target: T1, CD27 protein (His-tagged, Sino Biological Inc. 10039-H08B1) (human, UniProt P26842 20-192); assay: ELISA on coated His-tagged CD27
T1 construct: bought; coated onto ELISA plates; also called human CD27; recombinant protein; not shown: His tag
T1 sequence (looked up): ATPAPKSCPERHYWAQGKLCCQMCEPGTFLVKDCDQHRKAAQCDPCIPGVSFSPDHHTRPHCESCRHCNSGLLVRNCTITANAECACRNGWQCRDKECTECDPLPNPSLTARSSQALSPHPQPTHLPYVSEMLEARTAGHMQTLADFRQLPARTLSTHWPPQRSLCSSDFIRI
Further: test concentration or dose not given here.

Binder | ELISA [abs. corr.]
B1 | 3.41
B2 | 3.4
B3 | 3.41
B4 | 3.38

molecular target: T2, CD134 expressed on the cell surface of HT1080_OX40 cells (human, UniProt P43489 29-277); assay: cell-based or functional assay
T2 sequence (looked up): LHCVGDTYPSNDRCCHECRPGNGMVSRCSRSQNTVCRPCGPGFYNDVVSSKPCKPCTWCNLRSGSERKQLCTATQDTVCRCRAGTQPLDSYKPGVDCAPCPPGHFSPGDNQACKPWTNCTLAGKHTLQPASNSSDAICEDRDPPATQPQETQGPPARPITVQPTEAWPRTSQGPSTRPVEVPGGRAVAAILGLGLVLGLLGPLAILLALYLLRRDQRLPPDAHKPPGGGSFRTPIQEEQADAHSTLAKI

Binder | Functional assay Cross-linked by F(ab′)2 fragment IL-8 [abs. corr.] | Functional assay IL-8 [abs. corr.]
B5 | 2.19 | 0.348
B6 | 2.34 | 0.115
B7 | 2.11 | 0.568
B8 | 2.15 | 0.33
B9 | 2.14 | 0.071
B10 | 2.04 | 0.38
B11 | 1.99 | 0.407
B12 | 2.14 | 0.936
B13 | 2.06 | 0.27

molecular target: T2, CD134 expressed on the cell surface of …; assay: HT1080_OX40 cells, imaging

Binder | Cellular binding assay [RFU]
B5 | 527
B6 | 498
B7 | 486
B8 | 396
B9 | 600
B10 | 530
B11 | 534
B12 | 571
B13 | 357

molecular target: T3, CD27 expressed on the cell surface (HT1080_CD27 cells) (human, UniProt P26842 20-260); assay: cellular binding assay, HT1080_CD27 cells
T3 construct: whole, on cells; also called K562_CD27
T3 sequence (looked up): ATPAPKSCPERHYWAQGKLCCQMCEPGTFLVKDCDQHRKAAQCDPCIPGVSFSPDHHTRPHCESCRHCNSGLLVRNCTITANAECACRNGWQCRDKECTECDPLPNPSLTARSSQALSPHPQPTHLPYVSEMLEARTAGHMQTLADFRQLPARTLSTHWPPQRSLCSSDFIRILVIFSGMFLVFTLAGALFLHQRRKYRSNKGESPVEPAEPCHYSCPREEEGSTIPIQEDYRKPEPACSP

Binder | Cellular binding assay [RFU]
B1 | 308
B2 | 302
B3 | 332
B4 | 283

molecular target: T3, CD27 expressed on the cell surface …; assay: cell-based or functional assay

Binder | IL-8, cross-linked by F(ab')2 fragment [abs. corr.] | IL-8 [abs. corr.]
B1 | 1.49 | 0.366
B2 | 1.36 | 0.56
B3 | 1.52 | 0.127
B4 | 1.34 | 0.641

molecular target: T4, CD134 protein (His-tagged, Sino Biological Inc. 10481-H08H) (human, UniProt P43489 29-216); assay: ELISA, coated His-tagged CD134
T4 construct: bought protein coated on ELISA plates; also called OX40; TNFRSF4; not shown: His tag
T4 sequence (looked up): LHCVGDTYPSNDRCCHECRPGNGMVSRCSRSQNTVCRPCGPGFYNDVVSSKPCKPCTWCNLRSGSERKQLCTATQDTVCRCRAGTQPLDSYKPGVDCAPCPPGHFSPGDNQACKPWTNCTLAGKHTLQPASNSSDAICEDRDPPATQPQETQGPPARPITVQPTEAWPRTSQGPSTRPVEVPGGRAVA

Binder | ELISA [abs. corr.]
B5 | 2.37
B6 | 2.69
B7 | 2.25
B8 | 1.67
B9 | 2.41
B10 | 2.07
B11 | 2.08
B12 | 2.05
B13 | 1.07
